target: CD3 on NFAT-RE-luc2-Jurkat cells (human, UniProt P07766 23-207); assay: cell-based or functional assay
Sequence (P07766 23-207): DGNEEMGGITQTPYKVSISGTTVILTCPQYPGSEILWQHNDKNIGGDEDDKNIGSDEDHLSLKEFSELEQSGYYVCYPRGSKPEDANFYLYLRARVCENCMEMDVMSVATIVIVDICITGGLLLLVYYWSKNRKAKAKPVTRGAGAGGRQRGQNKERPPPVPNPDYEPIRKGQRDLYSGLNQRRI

increase rate due to the protease treatment (luciferase, uPA-treated / untreated), antibody 0.1 nM [ratio] | increase rate due to the protease treatment (luciferase, uPA-treated / untreated), antibody 1 nM [ratio] | Binder
1.2 | 2.4 | hCE115HAuPA20L/GLS//GCH065 (bispecific antibody, human IgG1, kappa, N297A) heavy 1: QDGNEEMGGITQTPYKVSISGGGGSGGGGSGGGGSLSGRSDNHGGGSQVQLVESGGGVVQPGRSLRLSCAASGFTFSNAWMHWVRQAPGKGLEWVAQIKAKSNNYATYYAESVKGRFTISRDDSKNSLYLQMNSLKTEDTAVYYCRYVHYGAYYGVDAWGQGTTVTVSSASTKGPSVFPLAPSSKSTSGGTAALGCLVKDYFPEPVTVSWNSGALTSGVHTFPAVLQSSGLYSLSSVVTVPSSSLGTQTYICNVNHKPSNTKVDKKVEPKSCDKTHTCPPCPAPELRGGPKVFLFPPKPKDTLMISRTPEVTCVVVDVSHEDPEVKFNWYVDGVEVHNAKTKPREEQYASTYRVVSVLTVLHQDWLNGKEYKCKVSNKALPAPIEKTISKAKGQPREPQVYTLPPSRKEMTKNQVSLTCLVKGFYPSDIAVEWESNGQPENNYKTTPPYLDSDGSFFLYSKLTVDKSRWQQGNVFSCSVMHEALHNHYTQKSLSLSP light 1: DIVMTQSPLSLPVTPGEPASISCRSSQSLVHSNRNTYLHWYQQKPGQAPRLLIYKVSNRFSGVPDRFSGSGSGTDFTLKISRVEAEDVGVYYCGQGTQVPYTFGQGTKLEIKRTVAAPSVFIFPPSDEQLKSGTASVVCLLNNFYPREAKVQWKVDNALQSGNSQESVTEQDSKDSTYSLSSTLTLSKADYEKHKVYACEVTHQGLSSPVTKSFNRGEC heavy 2: QVQLVQSGAEVKKPGASVTVSCKASGYTFTDYEMHWIRQPPGEGLEWIGAIDGPTPDTAYSEKFKGRVTLTADKSTSTAYMELSSLTSEDTAVYYCTRFYSYTYWGQGTLVTVSSASTKGPSVFPLAPSSKSTSGGTAALGCLVKDYFPEPVTVSWNSGALTSGVHTFPAVLQSSGLYSLSSVVTVPSSSLGTQTYICNVNHKPSNTKVDKKVEPKSCDKTHTCPPCPAPELRGGPKVFLFPPKPKDTLMISRTPEVTCVVVDVSHEDPEVKFNWYVDGVEVHNAKTKPREEQYASTYRVVSVLTVLHQDWLNGKEYKCKVSNKALPAPIEKTISKAKGQPREPQVYTLPPSREEMTKNQVSLTCLVKGFYPSDIAVEWESNGQPENNYKTTPPYLDSDGSFFLYSKLTVDKSRWQQGNVFSCSVMHEALHNHYTQESLSLSP light 2: DIVMTQSPLSLPVTPGEPASISCRSSQPLVHSNRNTYLHWYQQKPGQAPRLLIYKVSNRFSGVPDRFSGSGSGTDFTLKISRVEAEDVGVYYCGQGTQVPYTFGQGTKLEIKRTVAAPSVFIFPPSDEQLKSGTASVVCLLNNFYPREAKVQWKVDNALQSGNSQESVTEQDSKDSTYSLSSTLTLSKADYEKHKVYACEVTHQGLSSPVTKSFNRGEC
1.1 | 2.4 | hCE115HAuPA20/GLS//GCH065 (bispecific antibody, human IgG1, kappa, N297A) heavy 1: QDGNEEMGGITQTPYKVSISLSGRSDNHGGGSQVQLVESGGGVVQPGRSLRLSCAASGFTFSNAWMHWVRQAPGKGLEWVAQIKAKSNNYATYYAESVKGRFTISRDDSKNSLYLQMNSLKTEDTAVYYCRYVHYGAYYGVDAWGQGTTVTVSSASTKGPSVFPLAPSSKSTSGGTAALGCLVKDYFPEPVTVSWNSGALTSGVHTFPAVLQSSGLYSLSSVVTVPSSSLGTQTYICNVNHKPSNTKVDKKVEPKSCDKTHTCPPCPAPELRGGPKVFLFPPKPKDTLMISRTPEVTCVVVDVSHEDPEVKFNWYVDGVEVHNAKTKPREEQYASTYRVVSVLTVLHQDWLNGKEYKCKVSNKALPAPIEKTISKAKGQPREPQVYTLPPSRKEMTKNQVSLTCLVKGFYPSDIAVEWESNGQPENNYKTTPPYLDSDGSFFLYSKLTVDKSRWQQGNVFSCSVMHEALHNHYTQKSLSLSP light 1: DIVMTQSPLSLPVTPGEPASISCRSSQSLVHSNRNTYLHWYQQKPGQAPRLLIYKVSNRFSGVPDRFSGSGSGTDFTLKISRVEAEDVGVYYCGQGTQVPYTFGQGTKLEIKRTVAAPSVFIFPPSDEQLKSGTASVVCLLNNFYPREAKVQWKVDNALQSGNSQESVTEQDSKDSTYSLSSTLTLSKADYEKHKVYACEVTHQGLSSPVTKSFNRGEC heavy 2: QVQLVQSGAEVKKPGASVTVSCKASGYTFTDYEMHWIRQPPGEGLEWIGAIDGPTPDTAYSEKFKGRVTLTADKSTSTAYMELSSLTSEDTAVYYCTRFYSYTYWGQGTLVTVSSASTKGPSVFPLAPSSKSTSGGTAALGCLVKDYFPEPVTVSWNSGALTSGVHTFPAVLQSSGLYSLSSVVTVPSSSLGTQTYICNVNHKPSNTKVDKKVEPKSCDKTHTCPPCPAPELRGGPKVFLFPPKPKDTLMISRTPEVTCVVVDVSHEDPEVKFNWYVDGVEVHNAKTKPREEQYASTYRVVSVLTVLHQDWLNGKEYKCKVSNKALPAPIEKTISKAKGQPREPQVYTLPPSREEMTKNQVSLTCLVKGFYPSDIAVEWESNGQPENNYKTTPPYLDSDGSFFLYSKLTVDKSRWQQGNVFSCSVMHEALHNHYTQESLSLSP light 2: DIVMTQSPLSLPVTPGEPASISCRSSQPLVHSNRNTYLHWYQQKPGQAPRLLIYKVSNRFSGVPDRFSGSGSGTDFTLKISRVEAEDVGVYYCGQGTQVPYTFGQGTKLEIKRTVAAPSVFIFPPSDEQLKSGTASVVCLLNNFYPREAKVQWKVDNALQSGNSQESVTEQDSKDSTYSLSSTLTLSKADYEKHKVYACEVTHQGLSSPVTKSFNRGEC

Further lines, the binder ahead of its results:

Binder | increase rate due to the protease treatment (luciferase, uPA-treated / untreated), antibody 0.1 nM [ratio] | increase rate due to the protease treatment (luciferase, uPA-treated / untreated), antibody 1 nM [ratio]
ANuPA20L/GLS//GCH065 (bispecific antibody, human IgG1, kappa, N297A) heavy 1: QDGNEEMGGITQTPYKVSISGGGGSGGGGSGGGGSLSGRSDNHGGGSQVQLVESGGGLVQPGRSLRLSCAASGFTFSNAWMHWVRQAPGKGLEWVAQIKDKANGYNAYYAESVKGRFTISRDDSKNSIYLQMNSLKTEDTAVYYCRYVHYTTYAGFSYKFGVDAWGQGTTVTVSSASTKGPSVFPLAPSSKSTSGGTAALGCLVKDYFPEPVTVSWNSGALTSGVHTFPAVLQSSGLYSLSSVVTVPSSSLGTQTYICNVNHKPSNTKVDKKVEPKSCDKTHTCPPCPAPELRGGPKVFLFPPKPKDTLMISRTPEVTCVVVDVSHEDPEVKFNWYVDGVEVHNAKTKPREEQYASTYRVVSVLTVLHQDWLNGKEYKCKVSNKALPAPIEKTISKAKGQPREPQVYTLPPSRKEMTKNQVSLTCLVKGFYPSDIAVEWESNGQPENNYKTTPPYLDSDGSFFLYSKLTVDKSRWQQGNVFSCSVMHEALHNHYTQKSLSLSP light 1: DIVMTQSPLSLPVTPGEPASISCRSSQSLVHSNRNTYLHWYQQKPGQAPRLLIYKVSNRFSGVPDRFSGSGSGTDFTLKISRVEAEDVGVYYCGQGTQVPYTFGQGTKLEIKRTVAAPSVFIFPPSDEQLKSGTASVVCLLNNFYPREAKVQWKVDNALQSGNSQESVTEQDSKDSTYSLSSTLTLSKADYEKHKVYACEVTHQGLSSPVTKSFNRGEC heavy 2: QVQLVQSGAEVKKPGASVTVSCKASGYTFTDYEMHWIRQPPGEGLEWIGAIDGPTPDTAYSEKFKGRVTLTADKSTSTAYMELSSLTSEDTAVYYCTRFYSYTYWGQGTLVTVSSASTKGPSVFPLAPSSKSTSGGTAALGCLVKDYFPEPVTVSWNSGALTSGVHTFPAVLQSSGLYSLSSVVTVPSSSLGTQTYICNVNHKPSNTKVDKKVEPKSCDKTHTCPPCPAPELRGGPKVFLFPPKPKDTLMISRTPEVTCVVVDVSHEDPEVKFNWYVDGVEVHNAKTKPREEQYASTYRVVSVLTVLHQDWLNGKEYKCKVSNKALPAPIEKTISKAKGQPREPQVYTLPPSREEMTKNQVSLTCLVKGFYPSDIAVEWESNGQPENNYKTTPPYLDSDGSFFLYSKLTVDKSRWQQGNVFSCSVMHEALHNHYTQESLSLSP light 2: DIVMTQSPLSLPVTPGEPASISCRSSQPLVHSNRNTYLHWYQQKPGQAPRLLIYKVSNRFSGVPDRFSGSGSGTDFTLKISRVEAEDVGVYYCGQGTQVPYTFGQGTKLEIKRTVAAPSVFIFPPSDEQLKSGTASVVCLLNNFYPREAKVQWKVDNALQSGNSQESVTEQDSKDSTYSLSSTLTLSKADYEKHKVYACEVTHQGLSSPVTKSFNRGEC | 1 | 1.7
hCE115HAuPA04/GLS//GCH065 (bispecific antibody, human IgG1, kappa, N297A) heavy 1: QDGNEEMGGGSGGGSGGGSLSGRSDNHGGGSQVQLVESGGGVVQPGRSLRLSCAASGFTFSNAWMHWVRQAPGKGLEWVAQIKAKSNNYATYYAESVKGRFTISRDDSKNSLYLQMNSLKTEDTAVYYCRYVHYGAYYGVDAWGQGTTVTVSSASTKGPSVFPLAPSSKSTSGGTAALGCLVKDYFPEPVTVSWNSGALTSGVHTFPAVLQSSGLYSLSSVVTVPSSSLGTQTYICNVNHKPSNTKVDKKVEPKSCDKTHTCPPCPAPELRGGPKVFLFPPKPKDTLMISRTPEVTCVVVDVSHEDPEVKFNWYVDGVEVHNAKTKPREEQYASTYRVVSVLTVLHQDWLNGKEYKCKVSNKALPAPIEKTISKAKGQPREPQVYTLPPSRKEMTKNQVSLTCLVKGFYPSDIAVEWESNGQPENNYKTTPPYLDSDGSFFLYSKLTVDKSRWQQGNVFSCSVMHEALHNHYTQKSLSLSP light 1: DIVMTQSPLSLPVTPGEPASISCRSSQSLVHSNRNTYLHWYQQKPGQAPRLLIYKVSNRFSGVPDRFSGSGSGTDFTLKISRVEAEDVGVYYCGQGTQVPYTFGQGTKLEIKRTVAAPSVFIFPPSDEQLKSGTASVVCLLNNFYPREAKVQWKVDNALQSGNSQESVTEQDSKDSTYSLSSTLTLSKADYEKHKVYACEVTHQGLSSPVTKSFNRGEC heavy 2: QVQLVQSGAEVKKPGASVTVSCKASGYTFTDYEMHWIRQPPGEGLEWIGAIDGPTPDTAYSEKFKGRVTLTADKSTSTAYMELSSLTSEDTAVYYCTRFYSYTYWGQGTLVTVSSASTKGPSVFPLAPSSKSTSGGTAALGCLVKDYFPEPVTVSWNSGALTSGVHTFPAVLQSSGLYSLSSVVTVPSSSLGTQTYICNVNHKPSNTKVDKKVEPKSCDKTHTCPPCPAPELRGGPKVFLFPPKPKDTLMISRTPEVTCVVVDVSHEDPEVKFNWYVDGVEVHNAKTKPREEQYASTYRVVSVLTVLHQDWLNGKEYKCKVSNKALPAPIEKTISKAKGQPREPQVYTLPPSREEMTKNQVSLTCLVKGFYPSDIAVEWESNGQPENNYKTTPPYLDSDGSFFLYSKLTVDKSRWQQGNVFSCSVMHEALHNHYTQESLSLSP light 2: DIVMTQSPLSLPVTPGEPASISCRSSQPLVHSNRNTYLHWYQQKPGQAPRLLIYKVSNRFSGVPDRFSGSGSGTDFTLKISRVEAEDVGVYYCGQGTQVPYTFGQGTKLEIKRTVAAPSVFIFPPSDEQLKSGTASVVCLLNNFYPREAKVQWKVDNALQSGNSQESVTEQDSKDSTYSLSSTLTLSKADYEKHKVYACEVTHQGLSSPVTKSFNRGEC | 1.3 | 6.3
